Source: doi:10.1101/2023.08.03.551877 (bioRxiv, 2023)

B1: Ume1 (natural protein)
chain: MSTLDIAEDNKIKNEEFKIWKKSIPSLYQHISSLKPIFGSGVDESPSTLRSIVFTNDSSCNKSKGVLSVPLLYSQGSEIFEVDCIVPLGLHYKKPESISEPLVQPDYTMESQKVEQTVLIPKWEFKGETIAKMIYVDNSEINVKVIALSTNGSLAWFREGVKSPVYTMMEPSTSLSSASSGNQNKPCVDFAISNDSKTLTVTKEKHLDNENATIKLIDNSGKIGEVLRTIPVPGIKNIQEIKFLNNQIFATCSDDGIIRFWGNEIGKKPLWILNDSLDGKTTCFAASPFVDTLFMTGTSGGALKVWDIRAVIALGDADAELNINQGHNKVNELFKVHHFYSEQVSKIEFSSISPMEVVTIGGLGNVYHWNFEPVFAIYNEIHEDFQGIISDELEAESMAFYHTEGCRREIGENNKVNTVAYHKYIEDLVATVDSDGLLTVYKPFTGKVLDGSREVGAAKS
B2: Rco1 (natural protein)
chain: MDTSKKDTTRSPSHSNSSSPSSSSLSSSSSKEKKRPKRLSSQNVNYDLKRRKIITSEGIERSFKNEHSNLAVEDNIPEEEPKELLEKDSKGNIIKLNEPSTISEDSKVSVTGLPLNKGPSEKIKRESLWNYRKNLGGQSNNSEMTLVPSKRFTQVPKNFQDLNRNDLKTFLTENMTEESNIRSTIGWNGDIINRTRDREPESDRDNKKLSNIRTKIILSTNATYDSKSKLFGQNSIKSTSNASEKIFRDKNNSTIDFENEDFCSACNQSGSFLCCDTCPKSFHFLCLDPPIDPNNLPKGDWHCNECKFKIFINNSMATLKKIESNFIKQNNNVKIFAKLLFNIDSHNPKQFQLPNYIKETFPAVKTGSRGQYSDENDKIPLTDRQLFNTSYGQSITKLDSYNPDTHIDSNSGKFLICYKCNQTRLGSWSHPENSRLIMTCDYCQTPWHLDCVPRASFKNLGSKWKCPLHSPTKVYKKIHHCQEDNSVNYKVWKKQRLINKKNQLYYEPLQKIGYQNNGNIQIIPTTSHTDYDFNQDFKITQIDENSIKYDFFDKIYKSKMVQKRKLFQFQESLIDKLVSNGSQNGNSEDNMVKDIASLIYFQVSNNDKSSNNKSASKSNNLRKLWDLKELTNVVVPNELDSIQFNDFSSDEIKHLLYLKKIIESKPKEELLKFLNIENPENQSE

Columns and labels:
Assay in all cases: cryo-EM structure
Sin3 = Sin3 (S. cerevisiae, UniProt P22579 1-1536)
Rco1 = biological target: B2
Ume1 = biological target: B1
cryo-EM structure = biological target: the molecule itself

Sin3, sequence (P22579 whole entry): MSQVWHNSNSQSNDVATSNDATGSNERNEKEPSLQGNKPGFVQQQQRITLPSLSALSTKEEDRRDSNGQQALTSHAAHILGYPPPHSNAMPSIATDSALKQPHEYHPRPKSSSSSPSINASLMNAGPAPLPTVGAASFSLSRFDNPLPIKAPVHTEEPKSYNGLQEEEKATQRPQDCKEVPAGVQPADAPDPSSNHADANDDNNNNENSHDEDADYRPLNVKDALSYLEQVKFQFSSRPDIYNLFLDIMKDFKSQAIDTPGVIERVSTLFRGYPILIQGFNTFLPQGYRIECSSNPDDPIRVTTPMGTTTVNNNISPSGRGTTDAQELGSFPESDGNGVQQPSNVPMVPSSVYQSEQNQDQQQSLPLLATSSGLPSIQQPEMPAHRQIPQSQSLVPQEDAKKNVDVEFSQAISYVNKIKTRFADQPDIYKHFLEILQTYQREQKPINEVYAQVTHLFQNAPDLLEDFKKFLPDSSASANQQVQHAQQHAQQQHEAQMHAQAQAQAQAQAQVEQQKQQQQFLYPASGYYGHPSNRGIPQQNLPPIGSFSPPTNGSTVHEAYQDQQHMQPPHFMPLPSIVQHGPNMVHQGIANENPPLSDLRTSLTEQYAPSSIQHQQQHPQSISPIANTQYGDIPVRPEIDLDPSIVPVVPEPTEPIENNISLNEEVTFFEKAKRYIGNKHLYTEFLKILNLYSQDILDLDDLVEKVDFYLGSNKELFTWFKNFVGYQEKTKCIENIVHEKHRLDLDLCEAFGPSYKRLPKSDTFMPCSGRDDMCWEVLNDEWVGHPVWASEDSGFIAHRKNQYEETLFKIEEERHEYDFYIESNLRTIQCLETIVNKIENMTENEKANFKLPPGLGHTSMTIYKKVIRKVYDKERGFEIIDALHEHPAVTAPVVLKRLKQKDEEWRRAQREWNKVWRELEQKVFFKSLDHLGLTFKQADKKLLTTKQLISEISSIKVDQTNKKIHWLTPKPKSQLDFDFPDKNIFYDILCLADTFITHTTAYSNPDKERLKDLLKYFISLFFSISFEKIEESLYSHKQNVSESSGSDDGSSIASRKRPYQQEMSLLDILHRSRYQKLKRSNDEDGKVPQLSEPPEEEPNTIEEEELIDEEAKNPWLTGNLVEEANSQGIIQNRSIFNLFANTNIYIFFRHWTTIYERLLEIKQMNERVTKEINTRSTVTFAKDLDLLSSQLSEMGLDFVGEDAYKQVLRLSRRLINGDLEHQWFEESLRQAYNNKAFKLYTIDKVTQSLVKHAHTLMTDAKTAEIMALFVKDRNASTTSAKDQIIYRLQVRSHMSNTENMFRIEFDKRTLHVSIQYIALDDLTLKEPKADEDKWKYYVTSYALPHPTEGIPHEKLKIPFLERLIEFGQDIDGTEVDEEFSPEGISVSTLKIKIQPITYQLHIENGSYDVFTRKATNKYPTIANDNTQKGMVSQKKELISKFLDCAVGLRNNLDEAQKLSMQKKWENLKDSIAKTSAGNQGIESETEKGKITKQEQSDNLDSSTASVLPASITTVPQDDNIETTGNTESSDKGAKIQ

Row | Binder | binding result (Sin3) | binding result (Rco1) | binding result (Ume1) | binding result (cryo-EM structure)
1 | B1 | binds | – | – | –
2 | Rpd3 (enzyme) MVYEATPFDPITVKPSDKRRVAYFYDADVGNYAYGAGHPMKPHRIRMAHSLIMNYGLYKKMEIYRAKPATKQEMCQFHTDEYIDFLSRVTPDNLEMFKRESVKFNVGDDCPVFDGLYEYCSISGGGSMEGAARLNRGKCDVAVNYAGGLHHAKKSEASGFCYLNDIVLGIIELLRYHPRVLYIDIDVHHGDGVEEAFYTTDRVMTCSFHKYGEFFPGTGELRDIGVGAGKNYAVNVPLRDGIDDATYRSVFEPVIKKIMEWYQPSAVVLQCGGDSLSGDRLGCFNLSMEGHANCVNYVKSFGIPMMVVGGGGYTMRNVARTWCFETGLLNNVVLDKDLPYNEYYEYYGPDYKLSVRPSNMFNVNTPEYLDKVMTNIFANLENTKYAPSVQLNHTPRDAEDLGDVEEDSAEAKDTKGGSQYARDLHVEHDNEFY | binds | binds | – | –
3 | Eaf3 (natural protein) MVDLEQEFALGGRCLAFHGPLMYEAKILKIWDPSSKMYTSIPNDKPGGSSQATKEIKPQKLGEDESIPEEIINGKCFFIHYQGWKSSWDEWVGYDRIRAYNEENIAMKKRLANEAKEAKKSLLEQQKKKKLSTSLGGPSNGGKRKGDSRSNASISKSTSQSFLTSSVSGRKSGRSSANSLHPGSSLRSSSDQNGNDDRRRSSSLSPNMLHHIAGYPTPKISLQIPIKLKSVLVDDWEYVTKDKKICRLPADVTVEMVLNKYEHEVSQELESPGSQSQLSEYCAGLKLYFDKCLGNMLLYRLERLQYDELLKKSSKDQKPLVPIRIYGAIHLLRLISVLPELISSTTMDLQSCQLLIKQTEDFLVWLLMHVDEYFNDKDPNRSDDALYVNTSSQYEGVALGM | – | binds | binds | –
4 | B2 | binds | – | – | binds
